The source of these data is the DeepSol protein solubility set.

The data set in a line: soluble on expression in E. coli; label from the status in PepcDB or PDB records.
On to “MSEAAQTLDGWYCLHDFRTIDWSAWKTLPNEEREAAISEFLALVDQWETTESEKQGSHAVYTIVGQKADILFMILRPTLDELHEIETALNKTKLADYLLPAYSYVSVVELSNYLASGSEDPYQIPEVRRRLYPILPKTNYICFYPMDKRRQGNDNWYMLSMEQRRELMRAHGMTGRKYAGKVTQIITGSVGLDDFEWGVTLFSDDALQFKKLVYEMRFDEVSARFGEFGSFFVGTRLPMENVSSFFHV”, for which the “soluble on expression in E. coli” value is reported as “soluble”. The entry for “MSEDSELIEQVIEQPDSLIISPPSDSSSSSYNHIQPFVYLESTATTQTNHNVLLILNQKITIDLISLWKKCEIIVCADGGANSLYEYFNDNNHHHHHENLQRSDYIPDYIVGDFDSISPDVKTYYESHGSKIIRQSSQYYNDFTKSIHCIQLHYQLNHTKENWFESIDEVDGLAKLWNGLNNSSDVVVDIDITIYVLNAIGGRFDQTVQSINQLYIMNEDYPKVTVFFITTNDIIFLLKKGVNYISYKNRLMFHKDNGSSPTPTCGLLPLSNKTPIILNSYGLKYDMRNWKTEMLGQVSSSNRISGETGFIVECSDDIVMNIEIDV” is “soluble”. The value for “MSEEKQTVEQNETEEQEIIEEQAAADEQQEETNESELLQNQINELQGLLEEKENKLLRVQADFENYKRRSRLEMEASQKYRSQNIVTDLLPALDSFERALQVEADNEQTKSLLQGMEMVHRQLVEALKKEGVEAIEAVGQEFDPNLHQAVMQAEDENYGSNIVVEEMQKGYKLKDRVIRPSMVKVNQ” was “not soluble”; that for “MSEEKYNYLDMHLSRKGSIYDSLIHLKPDNENKFGLDENSDICRTLSNYADYSTKKVKYFVNKRFSEIENIEKNIEDIDYSAFKYFRTLPPKYSDENDIRNNIIFNNNNIYIYAENKNGTLNEQACISISPDNNIIYCSTKGRRYTIGGHAGIQKNLNNEYNFLDENNFISPQNSIKTYTYDALDSSDLSSSFPKMNLIKTNDVLDDTNTNRINTANIFNEHIIMNSCESSNLNTTKCLSKNLSVQKLFKYYKKCSQDLEHEQRICKPCAHVYNGSTCMNGDECSFCHHPDHVLISAKKWKKLVKNNMEKLNILLHILRNPDDVNANFLNEMIKQNTKNFKKNKKINNIKNNTIINMYNQNIRHSNSNNNTINDMNNNNINKRHNKNRIFYFPQRNTDNILRPPYNNYESNETTDMYKNNYQVRNCNFSPYHMNM” was “not soluble”. The value for “MSEEPAAKRMKNADEFPNLRSEVAGPVKEKLIELDAIQHQLDVMSENAAEEVLKVEQIFNQKRLPIYEKRKKLTTKIDNFWQTAFLNHHLLSTAIPEEQEDLLAALRDLEVQEFEDLRSGFKIIMTFDPNEYFTNEVITKSYHLQSESPSTEITEIEWKENKKPPFKPEDGDSAHTFLEWLTYAALPDSDEIAEVIKDDLYVNPLQYYVMPDMQEVEEDDIEDFLNEERGVDENGQRIPRRNISDSLKVDQDESADGQEGEDEEEEDMGEEEEDGVEEEAEGEEEEEDGAIEEEGGDENVEAHVAVNPENTAE” was “soluble”.

As to “MSEFLPFSRPAMGVEELAAVKEVLESGWITTGPKNQALEQAFCQLTGNQHAIAVSSATAGMHITLMALKIGKGDEVITPSLTWVSTLNMISLLGATPVMVDVDRDTLMVTPEAIESAITPRTKAIIPVHYAGAPADIDAIRAIGERYGIAVIEDAAHAVGTYYKGRHIGAKGTAIFSFHAIKNITCAEGGLIVTDNENLARQLRMLKFHGLGVDAYDRQTWGRAPQAEVLTPGYKYNLTDINAAIALTQLVKLEHLNTRRREIAQQYQQALAALPFQPLSLPAWPHVHAWHLFIIRVDEQRCGISRDALMEALKERGIGTGLHFRAAHTQKYYRERFPTLSLPNTEWNSERICSLPLFPDMTTADADHVITALQQLAGQ”, the “soluble on expression in E. coli” value was “soluble”. The entry for “MSEIDLTSEYSCSKHSKNPETAGEEFDVKVEKIYEDLKNSSIERQEDIPYFPNGEMTRIDIWGPETAEKVFIMIHGGYWLIGNRKKCLAVVHVAQKLGYTVVSVGYDYANKDHVLSKTIVEALEGVQFALKKFKNAKKIVIGGHSVGAHLAFQAVTRIHDPRISGAYLSAGIYKIQELTSTTYGHDLGLTSEEAETCSCDYELMKHVRFPVLIACCRRESPKLYQQNQDFSSQVANAQYKV” is “not soluble”. Take “MSEKLRRCRKELTAAIDRAFEGVRHSQECTAQQRLDAPSLTSQPVHRLLCRNPLAACPSAAPYSGASCAPESENPAFGTHHIPVNSKLQQPLYPKRKPLTSKENVLMQSSILARDRQFWRAAGDGEDWRKDSLRKDMERDLKADPNVLLSSSSQEVTKDLLDMIDHTSIRTIEELAGKLEFENELNRVCGHCQDSPFKEEAWALLVDESPQKALDADPGSLKQALDDQNIVETVLDLEEDYNLMTSFKYQIE”: the “soluble on expression in E. coli” value is reported as “soluble”. The entry for “MSELNALLKDINGSLTATSESLERLSGIYSNSATDEIPESNQLHEHLFYDAKKPAEKVSLLSLKNGSMLGYINSLLMLIGNRLDDECKDPSAMDARERSIQHRVVLERGVKPLEKKLAYQLDKLTRAYVKMEKEYKDAEKRALEKSTLVNHSGNDDSEDDESSEDEIAYRPNTSGIINTNKKSSAYRVEETAKQENGEENDDNETGVYKPPKITAVLPPQQTHFEDRFDAREHKDRSNKSRMQAMEEYIRESSDQPDWSASIGADIVNHGRGGIKSLRDTEKERRVTSFEEDNFTRLNITNKAEKRKQKQRERNARMNVIGGEDFGIFSSKRKLEDSTSRRGAKKTRSAWDRAQRRL” is “soluble”; for “MSELSQLSPQPLWDIFAKICSIPHPSYHEEQLAEYIVGWAKEKGFHVERDQVGNILIRQPATAGMENRKPVVLQAHLDMVPQKNNDTVHDFTKDPIQPYIDGEWVKARGTTLGADNGIGMASALAVLADENVVHGPLEVLLTMTEEAGMDGAFGLQSNWLQADILINTDSEEEGEIYMGCAGGIDFTSNLHLDREAVPAGFETFKLTLKGLKGGHSGGEIHVGLGNANKLLVRFLAGHAEELDLRLIDFNGGTLRNAIPREAFATIAVAADKVDALKSLVNTYQEILKNELAEKEKNLALLLDSVANDKAALIAKSRDTFIRLLNATPNGVIRNSDVAKGVVETSLNVGVVTMTDNNVEIHCLIRSLIDSGKDYVVSMLDSLGKLAGAKTEAKGAYPGWQPDANSPVMHLVRETYQRLFNKTPNIQIIHAGLECGLFKKPYPEMDMVSIGPTITGPHSPDEQVHIESVGHYWTLLTELLKEIPAKLEHHHHHH” it is “soluble”; for “MSELTIGLILPDVLGTYGDDGNALVLRQRARLRGISAEIHTVRLGEAVPEGLDLYCLGGGEDTAQILAAEHLNNDRGLRRAADSGRPILGICAGLQVLGRSFRASGKIVEGVGLIDATTASLAKRTIGELQSTPTAAGFTAELTEPLTGFENHMGATILGPDAQPLGAVTRGVGNTDLHGITTASVSDEQVSYEGAVQGNVVCTYMHGPALARNPQLADLLLAKAMGIALADLAPLDLPVVDQLRKERLA” it is “not soluble”. The entry for “MSENNKIILYQDDNEIIRVSVRFSDEDLWLTQNQLAEIYCTTQQNISQHVDNIYKDGELFTEATNKKFLLVRQEGNRQVRRNIDHYNLDMVIALGYRVQSQVATRFRRWATQRLHEYIQKGFAMDDERLKQGGNRYFRELLQRIRDIRSSERNFYQQVTDIYATATDYDPRDEMTKMFFATVQNKLHYAVHENTAAEVIYNRVDNEKPFVGMTNFKGNYVTKDDVKIAKNYLSEIELQRLNLLVSGFLDFAEFQALEMNPMTMKDWIEALDNQIIAHKRKVLIDKGRISHKQAIEKAEKEFAIYRKREMDLLESDFDKEIKRLKDKNDNNPN” is “not soluble”.

“MSEPTYFMPPEWAPHASTWLSWPHKLESWPGKFEPVPAVFAELAYQLSRSETVNINVLDDAMEAQARELLKERDPEGKYAERIVFHRIPTNDAWCRDHGPNYVIRTQDGRRDKVIMNWEYNAWGGKYEPYDDDNAVPERVAKAQGLPMVSTGMVLEGGAIDVNGAGLLLTTTACLLNPNRNPSLGKAEIEAQLRRYLGIEKVLWLGDGIAGDDTDGHVDDMARFVNENTVVIAVEEDPEDENYKPLRENYELLKTMTGLDGKPLNIVKLPMPEPVYYDGERLPASYANFYIANTVVLVPTYRCPRDQQAIDILQQCFPKREVVGIDCSDLIWGLGAIHCVTHEEPAMLEHHHHHH”: the “soluble on expression in E. coli” value is listed as “soluble”.

In the case of “MSEQITFATSDFASNPEPRCPCILLLDVSGSMSGRPINELNTGLVTFRDELLADSLALKRVELGIVTFGPVHVEQPFTSAANFFPPILFAQGDTPMGAAITKALDMVEERKREYRANGISYYRPWIFLITDGAPIDEWQAAANKVFRGEEDKRFAFFSIGVQGADMKTLAQISVRQPLPLQGLQFRELFSWLSSSLRSVSRSTPGTEVVLEAPKGWTSV”, the “soluble on expression in E. coli” value is “not soluble”. The entry for “MSEQLVTPENVTTKDGKINLLDLNRQQMREFFKDLGEKPFRADQVMKWMYHYCDNFDEMTDINKVLRGKLKEVAEIRAPEVVEEQRSSDGTIKWAIAVGDQRVETVYIPEDDRATLCVSSQVGCALECKFCSTAQQGFNRNLRVSEIIGQVWRAAKIVGAAKVTGQRPITNVVMMGMGEPLLNLNNVVPAMEIMLDDFGFGLSKRRVTLSTSGVVPALDKLGDMIDVALAISLHAPNDEIRDEIVPINKKYNIETFLAAVRRYLEKSNANQGRVTIEYVMLDHVNDGTEHAHQLAELLKDTPCKINLIPWNPFPGAPYGRSSNSRIDRFSKVLMSYGFTTIVRKTRGDDIDAACGQLAGDVIDRTKRTLRKRMQGEAIDIKAV” is “not soluble”. The value for “MSEQTLEYFLNKGTIRRKDAADIEWYHAANSKSKLMEALRGSAQMIEADVLLRGADPEEPIMAHPPAKDSDITLQDWLKEVVKTDKGIKLDFKSLAAVSQSMSLLEEIRDQLKGPVWINADILPGPGGTATPVDPHVFLQEVAQRSENDVLSLGWTTGWTANVDNPGYSWEMVHQMEELCRPLKQPVTFPVRASLLPMSFPQFQWLLEQSDRSEILH” was “not soluble”; that for “MSERVSEEPGLDKGDRAEECELDDPELKAIRMRVREMEEEAERLKGLSGQDKSIGVSTRPCMQTTHSKMTAGAYTEGPPQPLSAEEKKEIDKRSVYVGNVDYGSTAQDLEAHFSSCGSINRITILCDKFSGHPKGYAYIEFAERNSVDAAVAMDETVFRGRTIKVLPKRTNMPGISSTDRGGFRGRPRGNRGNYQRGQRPRGRPFRGRGRPGPLNNPY” was “soluble”; that for “MSETVKLDVGGTIFKTSRSTLTKFNGFFKTMLESDIGLKIDESGSIFIDRSPKNFDLILNFMRDGDVVLPNCELKLKELLVEAQFYLLDGLIELCNSKIELVEAPKIKLRFIESDEQFLQILAVQQKPMLIIEFCMVGNDMSIPYNFNLYEFMEKYSHQFDIYFRKFFVHYPHKIVNSERLSEDEPSRKWKARIKWKPTENGYYSQFPHNLRINRGGRIIRDATFLERLEKMIGEFDEYLKKQRNR” was “not soluble”. The entry for “MSFFPGNDPVAGDAFACDAIENLIIPRTSDIGGFAVRRALPTRQRRLVGPFIFFDRMGPAILKAGEALDVKPHPHIGLSTVTYLFDGEIKHRDSLGTELVIRPGDINLMTAGRGIVHSERTPENLRGHPLSMSGLQTWLALPDHMEEIAPAFAHTAKEDMPLIDIKGASGRVVIGEFEGLTSPVSAFTDTLYVDLSLEPGVKFPFSADHEERAIYILSGSLDVAGDIFAADQLLVFRPGDDITLQAGSNGCHIMIFGGAALNQRRYIWWNFVSSSKERIEQAKQEWRTGRFDIVPGDEEEFVPLPEG” is “not soluble”; for “MSFKGFKVVMLILLSTQSYASKLASSIVCDSTIENPCIVQDSKTQFSPVIRYREVASIADVYGGNITGINKFHLSGSEQPSEKGWEAIAESISRKMGAETKKVIVLDLRQESHGYLNGRAITLVSAYNWINLGKSNSQSTLDQENWLAGLRSRKIVNGVLTVPQYVAKQYSQGKSMVVSTVKNEEYYVYKKGFDYYRIFISDHRAPLDSEVDALVALIKNNPEDTWYHVHCRGGKGRTTTVFAMFDMLKNADKVSFEEIIARQASIPPFYNLMVTNREIPELTPYYEQRLQFLIHFYEFARQSLMGYSGTWSEWKKLNI” it is “not soluble”.
